Measured values: article PMC11870023, “A facile assay for zDHHC palmitoyl transferase activation elucidates effects of mutation and modification” (Journal of Lipid Research, 2025)
Positions count from the first letter of the chain named. Names and notes keep the numbering of the source.

Experiments:
Assay in all cases: auto-S-palmitoylation of HEK293 membranes, SDS-PAGE fluorescence normalised to tag Western blot
[1] = substrate: CC(C)(COP(=O)(O)OP(=O)(O)OC[C@H]1O[C@@H](n2cnc3c(N)ncnc32)[C@H](O)[C@@H]1OP(=O)(O)O)[C@@H](O)C(=O)NCCC(=O)NCCSC(=O)CCCCCCCCCCCCCCCNc1ccc([N+](=O)[O-])c2nonc12; assay type: cell-based, Mus musculus; conditions: pH 7.4, 37 °C, labelled compound, covalent thioester at active-site Cys
[2] = substrate: CC(C)(COP(=O)(O)OP(=O)(O)OC[C@H]1O[C@@H](n2cnc3c(N)ncnc32)[C@H](O)[C@@H]1OP(=O)(O)O)[C@@H](O)C(=O)NCCC(=O)NCCSC(=O)CCCCCCCCCCCCCCCNc1ccc([N+](=O)[O-])c2nonc12; assay type: cell-based, Homo sapiens; conditions: pH 7.4, 37 °C, 2 min, labelled compound, covalent thioester at active-site Cys
Source text: auto-S-palmitoylation of HEK293 membranes, SDS-PAGE fluorescence normalised to tag Western blot on human zDHHC2 | neither S306 F nor M356I mutation of zDHHC2 within the C-terminal cytoplasmic tail

[3] = substrate: CC(C)(COP(=O)(O)OP(=O)(O)OC[C@H]1O[C@@H](n2cnc3c(N)ncnc32)[C@H](O)[C@@H]1OP(=O)(O)O)[C@@H](O)C(=O)NCCC(=O)NCCSC(=O)CCCCCCCCCCCCCCCNc1ccc([N+](=O)[O-])c2nonc12; assay type: cell-based, Homo sapiens; conditions: pH 7.4, 37 °C, labelled compound, covalent thioester at active-site Cys
[4] = substrate: CC(C)(COP(=O)(O)OP(=O)(O)OC[C@H]1O[C@@H](n2cnc3c(N)ncnc32)[C@H](O)[C@@H]1OP(=O)(O)O)[C@@H](O)C(=O)NCCC(=O)NCCSC(=O)CCCCCCCCCCCCCCCNc1ccc([N+](=O)[O-])c2nonc12; assay type: cell-based, Homo sapiens; conditions: pH 7.4, 37 °C, 2 min, labelled compound, covalent thioester at active-site Cys; remark: listed apart in the source
Source text: auto-S-palmitoylation of HEK293 membranes, SDS-PAGE fluorescence normalised to tag Western blot on human zDHHC14 | A373Y mutation within the N-terminal cytoplasmic tail of zDHHC14 (Fig. 4A) had no effect

[5] = substrate: CC(C)(COP(=O)(O)OP(=O)(O)OC[C@H]1O[C@@H](n2cnc3c(N)ncnc32)[C@H](O)[C@@H]1OP(=O)(O)O)[C@@H](O)C(=O)NCCC(=O)NCCSC(=O)CCCCCCCCCCCCCCCNc1ccc([N+](=O)[O-])c2nonc12; assay type: biochemical, Mus musculus; conditions: pH 7.4, 37 °C, 2 min, labelled compound, covalent thioester at active-site Cys134

B1: mouse zDHHC2 (Mus musculus) (protein)
chain: MAPSGSGGVRRRCRRVLYWIPVVFISLLLGWSYYAYAIQLCIVSMENIGEQVVCLMAYHLLFAMFVWSYWKTIFTLPMNPSKEFHLSYAEKELLEREPRGEAHQEVLRRAAKDLPIYTRTMSGAIRYCDRCQLIKPDRCHHCSVCDKCILKMDHHCPWVNNCVGFSNYKFFLLFLAYSLLYCLFIAATDLQYFIRFWTNGLPDTQAKFHIMFLFFAAAMFSVSLSSLFGYHCWLVSKNKSTLEAFRNPVFRHGTDKNGFSLGFSKNMRQVFGDEKKYWLLPVFSSQGDGCSFPTCLVNQDPEQPSTPAGLNSTVKNPENHQFPAKPLRESQSHLLKDSQTWTESSANPGKGKAGMSNPALTMENET
notes: full length, HA tag kept (pEF-Bos-HA), HEK293 membrane fraction
Km [1]: 2.86 ± 0.78 µM

B2: human zDHHC2 (Homo sapiens; S306F) (protein)
chain: MAPSGPGSSARRRCRRVLYWIPVVFITLLLGWSYYAYAIQLCIVSMENTGEQVVCLMAYHLLFAMFVWSYWKTIFTLPMNPSKEFHLSYAEKDLLEREPRGEAHQEVLRRAAKDLPIYTRTMSGAIRYCDRCQLIKPDRCHHCSVCDKCILKMDHHCPWVNNCVGFSNYKFFLLFLAYSLLYCLFIAATDLQYFIKFWTNGLPDTQAKFHIMFLFFAAAMFSVSLSSLFGYHCWLVSKNKSTLEAFRSPVFRHGTDKNGFSLGFSKNMRQVFGDEKKYWLLPIFSSLGDGCSFPTCLVNQDPEQAFTPAGLNSTAKNLENHQFPAKPLRESQSHLLTDSQSWTESSINPGKCKAGMSNPALTMENET
notes: full length, His6-Myc tag kept (pCEpuro-His6-Myc-1), HEK293 membrane fraction
Km [2]: 3.36 ± 0.73 µM

B3: human zDHHC2 (Homo sapiens; M356I) (protein)
chain: B2 chain with F306S, M356I
notes: as for B2
Km [2]: 4.59 ± 0.89 µM

B4: human zDHHC2 (Homo sapiens) (protein)
chain: B2 chain with F306S
notes: as for B2
Km ([3]; 2 min): 4.46 ± 0.49 µM

B5: mouse zDHHC4 (Mus musculus) (protein)
chain: MDFLVLFLFYLAFLLICVVLICIFTKSQRLKAVVLGGAQVCSRVIPQCLQRAVQTLLHQLFHTRHPTFIVLHLLLQGLVYAEYTCEVFGYCRELEFSLPYLLLPYVLLSVNLVFFTLTCAANPGTITKANESFLLQVYKFDDVMFPKNSRCPTCDLRKPARSKHCRLCDRCVHRFDHHCVWVNNCIGAWNTRYFLIYLLTLTASAATIATVTAAFLLRLVTVSDLYQETYLDDVGHFQAVDTVFLIQHLFLAFPRIVFLLGFVIVLSMLLAGYLCFALYLAATNQTTNEWYKGDWAWCQRWPLVAWSPSAEPRIHQNIHSHGFRSNLREIFLPATPSYKKKEK
notes: as for B1
Km [1]: 0.69 ± 0.13 µM

B6: human zDHHC14 (Homo sapiens) (protein)
chain: MPPGGGGPMKDCEYSQISTHSSSPMESPHKKKKIAARRKWEVFPGRNKFFCNGRIMMARQTGVFYLTLVLILVTSGLFFAFDCPYLAVKITPAIPAVAGILFFFVMGTLLRTSFSDPGVLPRATPDEAADLERQIDIANGTSSGGYRPPPRTKEVIINGQTVKLKYCFTCKIFRPPRASHCSLCDNCVERFDHHCPWVGNCVGKRNYRFFYMFILSLSFLTVFIFAFVITHVILRSQQTGFLNALKDSPASVLEAVVCFFSVWSIVGLSGFHTYLISSNQTTNEDIKGSWSNKRGKENYNPYSYGNIFTNCCVALCGPISPSLIDRRGYIQPDTPQPAAPSNGITMYGATQSQSDMCDQDQCIQSTKFVLQAAATPLLQSEPSLTSDELHLPGKPGLGTPCASLTLGPPTPPASMPNLAEATLADVMPRKDEHMGHQFLTPDEAPSPPRLLAAGSPLAHSRTMHVLGLASQDSLHEDSVRGLVKLSSV
notes: as for B2
Km ([3]; 2 min): 1.78 ± 0.32 µM

B7: human zDHHC14 (Homo sapiens; A373Y) (protein)
chain: B6 chain with A373Y
notes: as for B2
Km [4]: 1.72 ± 0.50 µM

B8: mouse zDHHC14 (Mus musculus) (protein)
chain: MPPGGGGPMKDCEYSQISTHSSSPMESPHKKKKIAARRKWEVFPGRNKFFCNGRIMMARQTGVFYLTLILILVTSGLFFAFDCRYLAEKITPAIPVVGGILFFFVMGTLLRTSFSDPGVLPRATPDEAADLERQIDIANGTSSGGYRPPPRTKEVVINGQTVKLKYCFTCKIFRPPRASHCSLCDNCVEQFDHHCPWVGNCVGKRNYRFFYMFILSLSFLTVFIFAFVITHVIHRSQQKGFLDALKDSPASVLEAVICFFSVWSIIGLSGFHTYLISSNQTTNEDIKGSWSNKRGKENYNPYSYGNIFTNCCVALCGPISPSLIDRRGYVQPDTPQPAAPSNGITMYGATQSQSDMCDQDQCIQSTKFVLQAAATPLLQSEPSLTSEELHMPGKPGLGTPCASLTLGQPTPPSSMPNLATEATLSDIMPLKDEHGGHQFLTPDEAPSPPRMLGAGSPLAHSRTMHMLGLASQDSLHEDSVRGLVKLSSV
notes: as for B1
Km [1]: 0.98 ± 0.15 µM

B9: HA-tagged mouse zDHHC5 (Mus musculus) (protein)
chain: MPAESGKRFKPSKYVPVSAAAIFLVGATTLFFAFTCPGLSLNVSPAVPIYNAIMFLFVLANFSMATFMDPGIFPRAEEDEDKEDDFRAPLYKTVEIKGIQVRMKWCATCRFYRPPRCSHCSVCDNCVEEFDHHCPWVNNCIGRRNYRYFFLFLLSLTAHIMGVFGFGLLYVLYHIEELSGVRTAVTMAVMCVAGLFFIPVAGLTGFHVVLVARGRTTNEQVTGKFRGGVNPFTNGCCNNVSRVLCSSPAPRYLGRPKKEKTIVIRPPFLRPEVSDGQITVKIMDNGIQGELRRTKSKGSLEITESQSADAEPPPPPKPDLSRYTGLRTHLSLATNEDSSLLGKDSPPTPTMYKYRPGYSSSSTSAAMPHSSSAKLSRGDSLKEPTSIADSSRHPSYRSEPSLEPESFRSPTFGKSFHFDPLSSGSRSSSLKSAQGTGFELGQLQSIRSEGTTSTSYKSLANQTRNGSLSYDSLLTPSDSPDFESVQAGPEPDPPLGYTSPFLSARLAQQREAERHPRLLPTGPPHREPSPVRYDNLSRHIVASLQEREKLLRQSPPLAGREEEPGLGDSGIQSTPGSGHAPRTSSSSDDSKRSPLSKTPLGRPAVPRFGKPDGLRSRGLGSPEPGTTAPYLGRSISYSSQKAPSGVSETEEVALQPLLTPKDEVQLKTTYSKSNGQPKSIGSASPGPGQPPLSSPTRGGVKKVSGVGGTTYEISV
notes: full length, HA tag kept (pEF-Bos-HA), overexpressed in HEK293 cells, native membrane fraction; 78 kDa band
Km [5]: 3.59 ± 0.29 µM

B10: HA-tagged mouse zDHHC5 (Mus musculus; C236S/C237S/C245S) (protein)
chain: B9 chain with C236S, C237S, C245S
notes: as for B9
Km [5]: 17.95 ± 11.12 µM

B11: mouse zDHHC3 (Mus musculus) (protein)
chain: MMLIPTHHFRDIERKPEYLQPEKCAPPPFPGPAGAMWFIRDGCGIACAIVTWFLVLYAEFVVLFVMLVPSRDYAYSIINGIVFNLLAFLALASHCRAMLTDPGAVPKGNATKEFIESLQLKPGQVVYKCPKCCSIKPDRAHHCSVCKRCIRKMDHHCPWVNNCVGENNQKYFVLFTMYIALISLHALIMVGFHFLHCFEEDWTKCSSFSPPTTVILLILLCFEALLFLIFTSVMFGTQVHSICTDETGIEQLKKEERRWAKKTKWMNMKAVFGHPFSLGWASPFATPDQGKADPYQYVV
notes: as for B1
Km [1]: 6.83 ± 0.98 µM

B12: human zDHHC4 (Homo sapiens) (protein)
chain: MDFLVLFLFYLASVLMGLVLICVCSKTHSLKGLARGGAQIFSCIIPECLQRAVHGLLHYLFHTRNHTFIVLHLVLQGMVYTEYTWEVFGYCQELELSLHYLLLPYLLLGVNLFFFTLTCGTNPGIITKANELLFLHVYEFDEVMFPKNVRCSTCDLRKPARSKHCSVCNWCVHRFDHHCVWVNNCIGAWNIRYFLIYVLTLTASAATVAIVSTTFLVHLVVMSDLYQETYIDDLGHLHVMDTVFLIQYLFLTFPRIVFMLGFVVVLSFLLGGYLLFVLYLAATNQTTNEWYRGDWAWCQRCPLVAWPPSAEPQVHRNIHSHGLRSNLQEIFLPAFPCHERKKQE
notes: as for B2
Km ([3]; 5 min): 9.68 ± 2.34 µM
